# Assay results as given in patent US20140120109A1 (Regeneron, published 2014).
# Numbering of substitutions follows the chain as printed. In names and notes the source's numbering stands.
# T1: human TL1A, soluble, CHO-expressed, residues 72-251 of SEQ ID NO:244 with N-terminal His6-tag (human, UniProt O95150 72-251)
# T1 sequence: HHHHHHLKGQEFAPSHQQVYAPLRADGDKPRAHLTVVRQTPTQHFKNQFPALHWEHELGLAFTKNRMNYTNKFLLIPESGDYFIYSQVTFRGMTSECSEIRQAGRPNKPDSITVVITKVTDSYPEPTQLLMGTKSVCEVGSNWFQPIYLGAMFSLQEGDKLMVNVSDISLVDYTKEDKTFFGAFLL
# T2: human TL1A, soluble, E. coli-expressed, residues 72-251 of SEQ ID NO:244 (human, UniProt O95150 72-251)
# T2 sequence: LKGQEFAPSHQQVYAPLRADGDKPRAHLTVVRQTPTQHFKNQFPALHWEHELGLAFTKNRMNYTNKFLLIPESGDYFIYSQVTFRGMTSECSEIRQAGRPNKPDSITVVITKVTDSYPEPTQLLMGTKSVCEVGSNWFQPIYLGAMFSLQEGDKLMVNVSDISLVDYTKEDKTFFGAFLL
# T3: cynomolgus monkey TL1A, soluble, CHO-expressed, residues 72-251 of SEQ ID NO:248 with N-terminal His6-tag (cynomolgus monkey (Macaca fascicularis), UniProt O95150 72-251 (human entry))
# T3 chain: T1 sequence with F45L, I84V
# T4: cynomolgus monkey TL1A, soluble, E. coli-expressed, residues 72-251 of SEQ ID NO:248 (cynomolgus monkey (Macaca fascicularis), UniProt O95150 72-251 (human entry))
# T4 chain: T2 sequence with F39L, I78V
# T5: full-length cynomolgus monkey TL1A expressed on HEK293 cells (cynomolgus monkey (Macaca fascicularis), UniProt O95150 1-251 (human entry))
# T5 chain: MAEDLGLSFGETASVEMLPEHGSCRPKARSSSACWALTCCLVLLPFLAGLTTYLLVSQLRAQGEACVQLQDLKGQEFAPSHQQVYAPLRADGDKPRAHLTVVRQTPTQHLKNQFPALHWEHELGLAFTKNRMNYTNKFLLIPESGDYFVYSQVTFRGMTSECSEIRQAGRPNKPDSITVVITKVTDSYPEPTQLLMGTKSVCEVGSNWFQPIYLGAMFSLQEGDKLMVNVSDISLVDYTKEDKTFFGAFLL
# B1: H4H1752P (antibody, human IgG4 S228P, V domains shown)
# VH: EVQLVESGGGLVQPGGSLRLSCSASGFTFSKYVMTWVRQAPGKGLEWVSAIGPTGRTTEYADSVQGRFTISRDNSMNTVFLHLNSLTAEDTAEYYCAKMFDWNYDVYFDSWGQGTLVTVSS
# VL: DIQMTQSPSILSASVGDRVTITCRTSQSISNWLAWYQQKPGKAPNLLIYKASSLESGVPSRFSGSGSGTEFTLTISSLQPDDFATYYCQQYYRYWTFGQGTKVEIK
# B2: H4H1805N (antibody, human IgG4 S228P, V domains shown)
# VH: QVQLQQWGAGLLKPSETLSLTCAVYGGSFTGFYWSWIRQPPGKGLEWIGEINHRGNTNYNPSLKSRVTMSVDTSKNQFSLNMISVTAADTAMYFCASPFYDFWSGSDYWGQGTLVTVSS
# VL: DIMLTQTPLTSPVTLGQPASISCKSSQSLVHSDGNTYLSWLQQRPGQPPRLLFYKISNRFSGVPDRFSGSGAGTDFTLKISRVEAEDVGVYYCMQATQFPLTFGGGTKVEIK
# notes: human IgG4(S108P) form of H2M1805N
# B3: H4H1681N (antibody, human IgG4 S228P, V domains shown)
# VH: EVQLLESGGGLVQPGKSLRLSCAVSGFTFSTYGMNWVRQAPGKGLEWVSSISGTGRTTYHADSVQGRFTVSRDNSKNILYLQMNSLRADDTAVYFCTKERGDYYYGVFDYWGQGTLVTVSS
# VL: DIQMTQSPSTLSASVGDRVTITCRASQTISSWLAWYQQTPEKAPKLLIYAASNLQSGVPSRFSGSGSGTEFTLTISSLQPDDFATYYCQQYHRSWTFGQGTKVEIT
# B4: H4H1704N (antibody, human IgG4 S228P, V domains shown)
# VH: EVQLVESGGGLVQPGGSLRLSCAVSGFTFSSYWMSWVRQAPGKGLEWVANIKEDGSEKNYVDSVKGRFTLSSDNAKNSLYLQMNSLRAEDTAVYYCAREDYDSYYKYGMDVWGQGTAVIVSS
# VL: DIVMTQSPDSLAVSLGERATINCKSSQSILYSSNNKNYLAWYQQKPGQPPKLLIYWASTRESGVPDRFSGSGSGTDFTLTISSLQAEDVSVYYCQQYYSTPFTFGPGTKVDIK
# notes: human IgG4(S108P) form of H2M1704N
# B5: H4H1719P (antibody, human IgG4 S228P, V domains shown)
# VH: EVQLVESGGGLVQPGRSLRLSCVASGFTFQDYAMHWVRQAPGKGLEWVSGINWISDDMGYADSVMGRFTISRDNAKNSLYLQMDSLRAEDTALYYCAKDKGLRFLDYVMDVWGQGTTVTVSA
# VL: DIVMTQSPLSLPVTPGEPASISCRSTQSLLHRNGHNYLHWYLHKPGQSPQLLIHLGSNRASGVPDRFSGSGSGTDFTLKISRVEAEDVGVYYCMQALQTPYTFGQGTKLEIK
# B6: H4H1817N (antibody, human IgG4 S228P, V domains shown)
# VH: QVQLQQWGAGLLKPSETLSLTCAVSGGSFSDYFWTWIRQPPGKGLEWIGEISHSGRTNYNPSLKSRVTISVDTSMSQFSLKMTSVTAADSAVYYCARDYPNWVFDYWGQGTLVTVSS
# VL: EIELTQSPGTLSLSPGEGATLSCRASQSVFNSYLAWYQQKPGQAPRLLIYGASRRATGIPDRFSGSGSGTDFTLTISRLEPGDFAVYFCQQYGNSPLTFGGGTKVEIK
# notes: human IgG4(S108P) form of H2M1817N
# B7: H4H1804N (antibody, human IgG4 S228P, V domains shown)
# VH: QVQLHQWGAGLLKPSETLSLTCAVSGVSFSDYHWAWIRQSPGKGLEWIGDINHRGRTNYNPSLKSRVTISLDTSGNPFSLKLTSVTAADTAVYYCARDFPNWVFDSWGQGILVTVSS
# VL: EIVLSQSPGTLSLSPGERATLSCRASQSVSSSFLAWYQQYPGQAPRLLIYGASRRATGIPDRFRGSGSGTDFTLTISRLEPEDFAVYYCQQYGSSPLTFGGGTKVENK
# notes: human IgG4(S108P) form of H2M1804N
# B8: H4H1750P (antibody, human IgG4 S228P, V domains shown)
# VH: QVQLVESGGGVVQPGRSLRLSCVASGFTFSNYGMHWVRQAPGKGLEWVAVISYDGNNDLYSDSVKGRFTISRDNAKNALSLQMTSLRAEDTAVYYCARDSTMTPYYYHGIDVWGQGTTVTVSA
# VL: DIQMTQSPSSLSASVGDRVTITCRASQDIRNDLGWYQQKPGKAPKRLIYAASSLQSGVPSRFSGSGSGTDFTLTISSLQPEDFATYYCLQHNSYPPTFGQGTKVEIK
# B9: H4H1818N (antibody, human IgG4 S228P, V domains shown)
# VH: RLQLVESGGGLVKPGGSLKLSCAASGFTISDYYMSWIRQAPGKGLEWVSYIGGSGSTIYYADSVKGRFTISRDNAKNSLYLQMNSLRAEDTAVYYCAREDADSYYYYGMDVWGQGTTVTVSS
# VL: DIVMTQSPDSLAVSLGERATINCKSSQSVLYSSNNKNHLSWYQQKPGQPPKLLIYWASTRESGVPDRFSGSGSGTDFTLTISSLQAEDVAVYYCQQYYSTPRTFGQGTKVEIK
# notes: human IgG4(S108P) form of H2M1818N
# Target: T1, human TL1A, soluble, CHO-expressed, …
# Experiment: cell-based or functional assay
row,"IC50, NFkB-luciferase reporter",Binder
1,0.36 nM,B1
2,0.1 nM,B2
3,0.17 nM,B3
4,0.13 nM,B4
5,0.06 nM,B5
6,0.11 nM,B6
7,0.07 nM,B7
8,0.9 nM,B8
9,0.37 nM,B9

# Target: T2, human TL1A, soluble, E. coli-expressed, …
# Experiment: cell-based or functional assay
row,"IC50, NFkB-luciferase reporter",Binder
1,0.21 nM,B1
2,0.04 nM,B2
3,0.02 nM,B3
4,0.06 nM,B4
5,0.02 nM,B5
6,0.04 nM,B6
7,0.03 nM,B7
8,2.17 nM,B8
9,0.29 nM,B9

# Target: T3, cynomolgus monkey TL1A, soluble, …
# Experiment: cell-based or functional assay
row,"IC50, NFkB-luciferase reporter",Binder
1,0.12 nM,B1
2,0.03 nM,B2
3,0.03 nM,B3
4,0.01 nM,B4
5,0.01 nM,B5
6,0.04 nM,B6
7,0.03 nM,B7
8,155 nM,B8
9,0.13 nM,B9

# Target: T4, cynomolgus monkey TL1A, soluble, E. …
# Experiment: cell-based or functional assay
row,"IC50, NFkB-luciferase reporter",Binder
1,0.05 nM,B1
2,0.02 nM,B2
3,0.02 nM,B3
4,0.03 nM,B4
5,0.02 nM,B5
6,0.02 nM,B6
7,0.02 nM,B7
8,32.5 nM,B8
9,0.06 nM,B9

# Target: T5, full-length cynomolgus monkey TL1A …
# Experiment: cell-based or functional assay
row,"IC50, reporter + 10,000 TL1A cells",Binder
1,11.7 nM,B1
2,1.93 nM,B2
3,3.07 nM,B3
4,3.76 nM,B4
5,3 nM,B5
6,5.04 nM,B6
7,2.23 nM,B7
8,107 nM,B8
9,4.29 nM,B9

# Target: T1, human TL1A, soluble, CHO-expressed, …
# Experiment: cell-based or functional assay
# Remark: another data set of the same source
row,"Average % Blocking IFN-g, 3 ug/ml mAb",Binder
1,71%,B1
2,94%,B2
3,95%,B3
4,98%,B4
5,78%,B5
6,98%,B6
7,98%,B7
8,89%,B8
9,71%,B9

# Target: T1, human TL1A, soluble, CHO-expressed, …
# Experiment: ELISA, blocks hTL1A (150 pM) binding hDR3-Fc
# Experimental: (§1) The ability of antibodies to block human TL1A binding to its cognate receptors, the DR3 and DcR3 receptors, was measured using a competition sandwich ELISA. In addition, blocking of a human TL1A variant FHM (human TL1A Q167R) and the cynomolgus monkey (Macaca fascicularis) TL1A (MfTL1A) protein binding to the human DR3 or DcR3 receptors was measured in the same manner. Constant amounts of biotinylated human TL1A or FHM (both expressed with a 6-His tag in CHO cells) or biotinylated MfTL1A (expressed in CHO cells) were separately titrated with varying amounts of antibodies. The antibody-protein complexes were incubated in solution (1 hr, 25° C.) and then transferred to microtiter plates coated with human DR3 (hDR3) or human DcR3 (hDcR3) expressed as human IgG1 Fc fusion proteins. After one hour at 25° C. the wells were washed, and bound human or monkey TL1A was detected with streptavidin conjugated with horseradish peroxidase (HRP). Wells were developed with a TMB solution to produce a colorimetric reaction and quenched with aqueous sulfuric acid before reading absorbance at 450 nm on a Perkin-Elmer Victor X5 plate reader. A sigmoidal dose-response curve was fit to the data using the Prism™ data analysis package. […] Both fully human anti-hTL1A mAbs and comparator antibodies, i.e., control mAb1 (an anti-hTL1A antibody with heavy and light chain variable domains having the amino acid sequences corresponding to SEQ ID NOS:21 and 27, respectively, of US 2009/0280116) and control mAb3 (an anti-hTL1A antibody with heavy and light chain variable domains having the amino acid sequences corresponding to SEQ ID NOS:57 and 48, respectively, of US 2009/0280116), were included in the study. NB: No binding under the conditions tested; NT: Not tested. Concentrations of biotinylated soluble ligands: (1) 150 pM; (2) 500 pM; (3) 10 pM; and (4) 50 pM.
row,IC50,Binder
1,0.104 nM,B1
2,0.014 nM,B2
3,0.06 nM,B3
4,0.03 nM,B4
5,0.022 nM,B5
6,0.114 nM,B6
7,0.04 nM,B7
8,0.341 nM,B8
9,0.119 nM,B9

# Target: T3, cynomolgus monkey TL1A, soluble, …
# Experiment: ELISA, blocks MfTL1A (50 pM) binding hDcR3-Fc
# Experimental: as §1
row,IC50,Binder
1,0.056 nM,B1
2,0.313 nM,B2
3,0.093 nM,B3
4,0.11 nM,B4
5,0.061 nM,B5
6,0.322 nM,B6
7,0.034 nM,B7
8,1.1 nM,B9
